# Entries after “also recorded” stand apart in the source; their conditions may differ. No end group written: not given here.
# T1: CyP33 RRM (1–82) (UniProt Q9UNP9 1-82)
# T1 sequence (looked up): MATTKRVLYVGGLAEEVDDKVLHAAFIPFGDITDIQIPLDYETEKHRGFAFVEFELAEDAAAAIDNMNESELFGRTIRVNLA
# T2: CyP33 RRM (2–82) (UniProt Q9UNP9 2-82)
# T2 sequence (looked up): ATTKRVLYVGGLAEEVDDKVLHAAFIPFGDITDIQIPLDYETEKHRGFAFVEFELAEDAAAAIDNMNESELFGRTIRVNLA
# B1: MLL1 (1566–1639) (domain or fragment, human, UniProt Q03164 1566-1639, looked up)
# chain: GNFCPLCDKCYDDDDYESKMMQCGKCDRWVHSKCENLSDEMYEILSNLPESVAYTCVNCTERHPAEWRLALEKE
# B2: CyP33 RRM: RRM domain (1–82) of CyP33 (protein)
# chain: T1 sequence (looked up)
# Columns and labels:
# [1] = biological target: coexpressed MLL1 PHD3-Bromo cassette (residues 1566–1784, with deletion of 1666–1702 ZA loop segment) (human) (UniProt Q03164); experiment: ITC
# [2] = biological target: complex of MLL1 PHD3-Bromo cassette and full-length CyP33 (UniProt Q03164); experiment: ITC
# [3] = biological target: T3, MLL1 PHD3-Bromo cassette (Homo sapiens, UniProt Q03164, DEL1666-1702); experiment: ITC binding of H3K4me peptides to coexpressed MLL1 PHD3-Bromo cassette; details: vs H3K4me3 peptide without added Ala
# [4] = biological target: T3, MLL1 PHD3-Bromo cassette; experiment: Gel filtration complex formation with MLL1 PHD3-Bromo cassette; format: binding; details: for binding of CyP33 mutants to PHD3-Bromo: in vitro, Figure 4, lines 7 and 11
# [5] = system: HOXA9 expression in 293T cells; experiment: HOXA9 expression in transfected 293T cells; format: cell-based; details: overexpression, real-time PCR, empty vector control
# [6] = system: HOXC8 expression in 293T cells; experiment: HOXC8 expression in transfected 293T cells; format: cell-based; details: overexpression, real-time PCR, empty vector control
# [7] = system: H3 acetylation at HOXA9; experiment: ChIP with anti-H3 pan acetyl; format: cell-based; details: 293T cells, overexpression, anti-H3 pan acetyl (AcH3), typical for at least three independent experiments
# [8] = system: H3 acetylation at HOXC8; experiment: ChIP with anti-H3 pan acetyl; format: cell-based; details: 293T cells, overexpression, anti-H3 pan acetyl (AcH3), typical for at least three independent experiments
# [9] = system: HOXA9; experiment: Anti-HA ChIP of CyP33 binding at HOXA9; format: cell-based; details: 293T cells, typical for at least three independent experiments
# [10] = system: HOXC8; experiment: Anti-HA ChIP of CyP33 binding at HOXC8; format: cell-based; details: 293T cells, typical for at least three independent experiments
# [11] = system: MLL1 PHD3-Bromo cassette (1566–1784); experiment: 1H,15N-HSQC titration of MLL1 PHD3-Bromo cassette with acetyllysine peptides; format: binding; details: five equivalents of H4(7-17)K12ac or H4(14-19)K16ac, H3K23ac and H3K27ac data not shown
# [12] = system: MLL1 Bromo alone (1639–1784); experiment: 1H,15N-HSQC titration of MLL1 Bromo alone with acetyllysine peptides; format: binding; details: five equivalents of H4(7-17)K12ac or H4(14-19)K16ac, H3K23ac and H3K27ac data not shown
# [13] = system: HOXC8 locus in K562 cells; details: ref Fair et al., 2001; cited from earlier work
# [14] = biological target: T1, CyP33 RRM (1–82); experiment: NMR titration
# [15] = system: MLL1 PHD3 domain alone; experiment: Gel filtration complex formation with MLL1 PHD3 alone; format: binding
# [16] = system: MLL1 PHD3-Bromo mutant, where Pro1629 was replaced by Ala; experiment: Complex formation with MLL1 PHD3-Bromo Pro1629 to Ala mutant; format: binding; details: in the absence of CyP33 PPIase domain
# [17] = system: MLL1 PHD3 M1606D mutant; experiment: Complex formation with MLL1 PHD3 M1606D; format: binding; details: Figure 4, line 10
# [18] = system: MLL2 PHD3; experiment: Gel filtration complex formation with MLL2 PHD3; format: binding
# [19] = system: MLL2 PHD3 D1375M mutant; experiment: Complex formation with MLL2 PHD3 D1375M; format: binding; details: Figure 4, line 13
# [20] = system: MLL1 (1566–1639); experiment: NMR monitoring of Pro1629 cis-to-trans transition; format: binding; details: 1H,13C-HSQC
# [21] = system: MLL1 PHD3; experiment: 1H,15N-HSQC Trp1594 indole resonance on sequential addition; format: binding; details: H3K4me3 first (binary complex), then CyP33 RRM (ternary complex)
# [22] = system: AU-rich RNAs; details: ref Mi et al., 1996; Wang et al., 2008; cited from earlier work
# [23] = biological target: MLL1 PHD3-Bromo Y1581A mutant (human, UniProt Q03164 1566-1665; Q03164 1703-1784, Y1581A); experiment: ITC
# [24] = biological target: MLL1 PHD3-Bromo Q1587A mutant (human, UniProt Q03164 1566-1665; Q03164 1703-1784, Q1587A); experiment: ITC
# [25] = biological target: T2, CyP33 RRM (2–82); experiment: NMR structure
molecule,measurement,setting,value
H3(1-15)K4me3 peptide (from UniProt P68431 2-16),Kd,[1],4.3 µM
same,Kd,[2],11.6 µM
C[C@H](N)C(=O)N[C@@H](C)C(=O)N[C@@H](CCCNC(=N)N)C(=O)N[C@H](C(=O)N[C@@H](CCCC[N+](C)(C)C)C(=O)N[C@@H](CCC(N)=O)C(=O)N[C@H](C(=O)N[C@@H](C)C(=O)N[C@@H](CCCNC(=N)N)C(=O)N[C@@H](CCCCN)C(=O)N[C@@H](CO)C(=O)N[C@H](C(=O)NCC(=O)NCC(=O)N[C@@H](CCCCN)C(=O)N[C@@H](C)C(=O)O)[C@@H](C)O)[C@@H](C)O)[C@@H](C)O [single Ala],increase of dissociation constant on N-terminal extension,[3],6 fold
H3(1-15)K4me1 peptide (from UniProt P68431 2-16),Kd,[1],53 µM
F51D: CyP33 with F51D mutation in the RRM domain,binding of CyP33 mutants to PHD3-Bromo,[4],sufficient to abolish the binding between CyP33 and MLL1 PHD3-Bromo
same,HOXA9 repression,[5],did not cause any repression of either HOX gene; also recorded: not in cells expressing the F51D; also recorded: unable to deacetylate and repress target genes
same,HOXC8 repression,[6],did not cause any repression of either HOX gene; also recorded: not in cells expressing the F51D; also recorded: unable to deacetylate and repress target genes
same,H3 acetylation at HOXA9,[7],not in cells expressing the F51D; also recorded: unable to deacetylate
same,H3 acetylation at HOXC8,[8],unable to deacetylate
same,CyP33 binding to HOXA9,[9],variably reduced CyP33 binding; also recorded: only partially disrupted in its ability to bind to HOXA9 and HOXC8
same,CyP33 binding to HOXC8,[10],variably reduced CyP33 binding; also recorded: only partially disrupted in its ability to bind to HOXA9 and HOXC8
H3K4me3 peptide with a single Ala added at the N terminus,Kd,[1],26 µM
H4(7-17)K12ac: acetylated histone H4 peptide,"complexation shifts, PHD3-Bromo cassette",[11],did not observe any complexation shifts
same,"complexation shifts, Bromo alone",[12],did not observe any complexation shifts
C[C@H](N)C(=O)N[C@@H](C)C(=O)N[C@@H](C)C(=O)N[C@@H](C)C(=O)N[C@@H](CCCNC(=N)N)C(=O)N[C@H](C(=O)N[C@@H](CCCC[N+](C)(C)C)C(=O)N[C@@H](CCC(N)=O)C(=O)N[C@H](C(=O)N[C@@H](C)C(=O)N[C@@H](CCCNC(=N)N)C(=O)N[C@@H](CCCCN)C(=O)N[C@@H](CO)C(=O)N[C@H](C(=O)NCC(=O)NCC(=O)N[C@@H](CCCCN)C(=O)N[C@@H](C)C(=O)O)[C@@H](C)O)[C@@H](C)O)[C@@H](C)O [Ala-Ala-Ala tri-peptide],increase of dissociation constant on N-terminal extension,[3],15 fold
H4(14-19)K16ac: acetylated histone H4 peptide,"complexation shifts, PHD3-Bromo cassette",[11],did not observe any complexation shifts
same,"complexation shifts, Bromo alone",[12],did not observe any complexation shifts
H3K4me3 peptide with an Ala-Ala-Ala tripeptide added at the N terminus,Kd,[1],64 µM
H3(1-15)K4me2 peptide (from UniProt P68431 2-16),Kd,[1],6.9 µM
same,Kd,[2],15.2 µM
CyP33: cyclophilin with N-terminal RRM and C-terminal PPIase domain; FLAG-HA-tagged in 293T experiments,HOXA9 repression,[5],reduced
same,HOXC8 repression,[6],reduced
same,CyP33 binding to HOXA9,[9],bound to HOXA9 and HOXC8
same,CyP33 binding to HOXC8,[10],bound to HOXA9 and HOXC8
same,repression of HOXC8 locus,[13],repressor of the HOXC8 locus
F196E/M197E: CyP33 with F196E/M197E double mutation in the PPIase domain,binding of CyP33 mutants to PHD3-Bromo,[4],reduced the binding between CyP33 and PHD3-Bromo
same,HOXA9 repression,[5],did not cause any repression of either HOX gene; also recorded: not in cells expressing the F51D (green bars)or F196E/M197E
same,HOXC8 repression,[6],did not cause any repression of either HOX gene; also recorded: not in cells expressing the F51D (green bars)or F196E/M197E
same,H3 acetylation at HOXA9,[7],not in cells expressing the F51D (green bars) and F196E/M197E
same,CyP33 binding to HOXA9,[9],bound to HOXA9 and HOXC8
same,CyP33 binding to HOXC8,[10],bound to HOXA9 and HOXC8
B1,binding result,[14],binds
B2,complex formation with PHD3 alone,[15],formed a complex with the PHD3 domain alone
same,complex formation with PHD3-Bromo cassette,[4]; gel filtration,not with the PHD3-Bromo cassette
same,interaction with PHD3-Bromo P1629A,[16],interacted with a PHD3-Bromo mutant
same,complex formation with MLL1 PHD3 M1606D,[17],completely disrupted its complex formation with CyP33 RRM
same,binding to MLL2 PHD3,[18],does not bind CyP33 RRM
same,binding to MLL2 PHD3 D1375M,[19],converted MLL2 PHD3 to a CyP33 RRM binding partner
same,His1628-Pro1629 peptide bond configuration change,[20],transits from cis-to-trans configuration upon interaction with CyP33 RRM
same,Pro1629 Cγ chemical shift upon addition,[20]; major cross peak 25.3 ppm (cis) in free state,27.5 ppm
same,Trp1594 indole resonance shift on sequential addition,[21],upfield shift
same,RNA preference,[22],some preference for AU-rich RNAs
"ARTK(Me3)QTARKSTGGKA (peptide, UniProt P68431 2-16, looked up) [H3(1-15)K4me3 peptide]",binding result,[23],binds
same,binding result,[24],binds
"MMQCGKCDRWVHSKCENLSDEMYEILSNLPESVAYTCVNCTERH (domain or fragment, human, UniProt Q03164 1585-1628, looked up) [interacting segment of MLL1 PHD3 (1585–1628)]",binding result,[25],binds

# — paper PMC4690531 (Cell, 2010)
